Where two headings read alike, the source gives them in different places.

Data on four compounds can be found in US8039432B2, “Method of treatment of diabetes and/or obesity with reduced nausea side effect” (Conjuchem, LLC, priority 2005, dated 2011).

Data set [1] concerns male Sprague-Dawley rats. As to the kind of experiment: Kaolin intake (pica) test. Particulars: for kaolin intake after dosing relative to 0.9% NaCl: LiCl IP, exendin-4 and CJC-1134-PC 0.5 nmol/kg SC.
Method: (§1) Ninety male Sprague-Dawley rats of 6 weeks in age were housed individually and given food and water ad libitum. Habituation to kaolin was achieved by offering fresh blocks of kaolin daily for 8 days before dosing. Rats were then assigned to nine treatment groups (n=10/group).
(§2) Immediately following injection, animals were offered a fresh kaolin block in addition to food and water. Kaolin intake was measured every hour for a four-hour period immediately after dosing, and also at 6, 8, and 24 hours post dose (FIG. 3).
For data set [2], the system named is patients with stable Type 2 diabetes. As to the kind of experiment: Phase I/II single escalating dose clinical study of CJC-1134-PC. The conditions noted are these: for Nausea (%) / Vomiting (%): N=6. The class given is in vivo, human. How it is done: Patients enrolled in the trial had HbA1c levels between 6.5% and 11%. Patients previously treated with oral anti-diabetic agents discontinued therapy at least 1 week prior to dosing. […] Injections were performed with a 29 gauge needle. Each cohort consisted of 7 patients (6 active, 1 placebo). The mean glucose values at baseline of the cohorts (without placebo) were 15.6, 12.2, 12.1, 11.2, 9.6 and 15.3 mmol/L, respectively.
The efficacy parameters were based on the group mean and individual mean glucose values. Glucose was measured 6 times per day (fasting, 2-hour post-breakfast, pre-lunch, 2-hour post-lunch, pre-dinner and bedtime) during the first week and 3 times per day (fasting, 2-hour post-breakfast and bedtime) for the remaining 5 weeks of the study. In addition, a placebo group was constructed for data analysis by pooling the patients (one per cohort) that received placebo during the study. […] At the third cohort (1250 micrograms), the mean glucose reduction from baseline for the first week was 19% (ranging from 15% to 24% with a mean reduction on day 7 of 20%), giving an average glucose value for the week of 9.8 mmol/L. This glucose reduction was significant against baseline (p=0.0007) and against placebo (p=0.0045). […] The glucose reductions of the subsequent cohorts were of similar magnitude and duration and confirmed this response. At the 2500 microgram cohort, the average glucose value for the first week was reduced to 9.5 mmol/L; the value for the 5000 microgram cohort for the first week was reduced to 8.4 mmol/L. (The American Diabetes Association (ADA) has a recommended target of HbA1C<7%; a mean daily glucose level of 9.5 mmol/L corresponds to an HbA1C level of 7%).

Data set [3] deals with female diabetic db/db mice. The class given is in vivo, mouse. The conditions noted are these: for abnormal clinical signs: mouse, in vivo. How it is done:
Blood glycemia was recorded at the following time points: pre-dose, 1, 3, 6, 24, 30, 48, 52, 74 and 101 hours post dose using a handheld glucometer (Accu-check compact, Roche Diagnostics, Canada). Food and water intake were recorded at the following timepoints: 0 to 6, 6 to 24, 24 to 30, 30 to 48, 48 to 72 and 72 to 101 hours post dose.

For another data set, the system named is Sprague Dawley rats. As to the kind of experiment: Rat toxicity study (7-day and 28-day). The format is in vivo. The protocol:
Immediately following injection, rats were housed individually, and food consumption and changes in body weights were monitored. […] However, by day 4, food consumption was similar to that observed in rats receiving vehicle only (FIG. 4). […] (FIG. 5).
Recombinant human albumin (rHA) was also dosed at 23 mg/kg as an additional control.

Data set [4] concerns Male Zucker Diabetic Fatty (ZDF) rats. As to the kind of experiment: Anti-obesity test in ZDF rats. The format is in vivo, rat. The conditions noted are these: for cumulative food intake relative to 0.9% NaCl group / cumulative weight gain compared to 0.9% NaCl: 25 days; for cumulative weight gain compared to 0.9% NaCl: four weekly SC injections, 100 and 200 nmol/kg; for day on which decrease in cumulative food intake reached statistical significance: relative to 0.9% NaCl group, weekly SC injections. How it is done: Control animal were injected with 0.9% NaCl. Animals were weighed twice a week and food intake was measured daily for the first week and four times a week thereafter for a total of 25 days. Statistical analysis was performed using two-way Analysis of Variance (ANOVA) followed by the Tukey's pair-wise comparison test. Significance was considered when P value was less than 0.05.

Another data set deals with monkeys. Description: Monkey toxicity study (7-day and 28-day). The format is in vivo. The protocol:
Recombinant human albumin was also dosed at 9 mg/kg as an additional control.

Data set [5] concerns male Sprague-Dawley rats. Particulars: rat, in vivo. The text has this:
One model for studying gastrointestinal malaise in response to administration of a test agent is the conditioned taste aversion test (Peeters and Broekkamp, 1994, J. Steroid Biochem. Mol. Biol., 49:417-427). Conditioned taste aversion is a form of associative learning in which animals learn to avoid flavors of substances where initial ingestion of the substance was followed by illness. In conditioned taste aversion, animals learn to associate a flavor, or conditioned stimulus, with the aversive effects of an administered agent, or unconditioned stimulus. Following conditioned stimulus—unconditioned stimulus pairings, animals reduce their consumption of the conditioned stimulus, and/or show a preference for other tastes when later presented with the conditioned flavor. […] The conditioned stimulus was 0.1% saccharin flavored water with high palatability. […]
Following injection, all groups were given food ad libitum and 2 bottles of water. At 72 h and 96 h post dose, a choice of tap water or 0.1% saccharin solution (conditioned stimulus) was offered, and intake of both solutions was measured for 12 hours. Mean saccharin preference ratios, representing the percentage of saccharin solution consumed relative to total liquid intake, were determined for each group (FIGS. 1 and 2).

The next data set relates to subjects. The conditions noted are these: subcutaneous injection, 1.5 nmol/kg body weight and higher; cited from earlier work.
The subject of data set [6] is male Sprague-Dawley rats. Particulars: rat, in vivo. This is another data set of the same source.
Method: as §1, §2
The mark [7] stands for this setting: 1250 μg (17.6 nmoles) single SC.
[8] abbreviates: 2500 μg (35.2 nmoles) single SC.
Setting [9] is: 3750 μg (52.8 nmoles) single SC.
Where [10] appears, read: 5000 μg (70.4 nmoles) single SC.
The mark [11] stands for this setting: first four cohorts (310, 620, 1250 and 2500 μg).

Regarding `[Cl-].[Li+]` [LiCl, Lithium chloride, reference compound], the “kaolin intake after dosing relative to 0.9% NaCl” value in the data set with male Sprague-Dawley rats [1] is on record as “significant kaolin intake after 1 h”.
Take “exendin-4(1-39) Lys^40 (ε-AEEA-MPA)-NH2 conjugated with albumin [CJC-1134-PC]”: the “Nausea (%)” value in data set [2] (310 μg (4.4 nmoles) single SC) amounted to 0%; in data set [2] (620 μg (8.7 nmoles) single SC), 0%; in data set [2] (setting [7]), 0%; in data set [2] (setting [8]) it was 0%; in data set [2] (setting [9]), 17%; in data set [2] (setting [10]) it was 50%. In addition, the “Vomiting (%)” value in [2] (310 μg (4.4 nmoles) single SC) is 0%; in [2] (620 μg (8.7 nmoles) single SC), 0%; in data set [2] (setting [7]) it was 0%; in [2] (setting [8]), 0%; in data set [2] (setting [9]) it was 17%; in data set [2] (setting [10]) it was 17%. Also, the “average glucose value for the first week” value in [2] (1250 micrograms) turned out to be 9.8 mmol/L; in [2] (2500 microgram cohort), 9.5 mmol/L; in data set [2] (5000 microgram cohort), 8.4 mmol/L. The “duration of glucose lowering effect” value in [2] (1250 micrograms) was “more than 2 weeks”. The “mean glucose reduction from baseline on day 7” value in data set [2] (1250 micrograms) is listed as 20%. Moreover, in data set [2] (1250 micrograms, p=0.0007 vs baseline, p=0.0045 vs placebo), the “mean glucose reduction from baseline for the first week” value came out at 19%. Also, in data set [2] (5000 microgram cohort), the “symptoms (headache, dizziness, light-headedness without documented hypoglycaemia)” value was “symptoms linked to an over stimulation of the GLP-1 receptors were observed”. The injection site reactions result in [2] (setting [11]) is “no injection site reactions”. Further, in [2] (setting [11]), the safety and tolerability result was “no safety or tolerability issues”. In [2] (first two cohorts (310 and 620 micrograms)), the efficacy on glucose entry was “Limited or no efficacy”. The “average weight loss at day 7” value in data set [2] (first two non-active cohorts) is given as 0.4 kg; in data set [2] (three following cohorts where activity was observed on glucose), 0.9 kg. Besides, in [2] (in each of the 3750 and 5000 μg cohorts, post-lunch on day one), the gastric stasis result is “one mild and transient case of short-term gastric stasis”. In data set [2] (single SC dose, 310-5000 μg), the “dose linearity of plasma concentrations” value is listed as “dose linear”. In addition, the “blood glucose levels compared to 100 nmol/kg unconjugated exendin-4” value in data set [3] (100 nmol/kg single SC, 24 h post dose) is “significantly lower”. Also, the “blood glucose levels compared to unconjugated exendin-4” value is reported as “remained lower” in data set [3] (100 nmol/kg single SC, out to 48 h post dose) and “comparable” in [3] (after 72 h). Further, the “food and water consumption compared to unconjugated exendin-4” value in data set [3] (24-47 h post dose) is “remained lower”; in data set [3] (after 24 hours), “significantly reduced”. Further, in data set [3] (after 74 h, maintained out to 101 h post dose), the “food consumption relative to exendin-4 treated mice” value is reported as “only moderately lower”. The abnormal clinical signs result in data set [3] is recorded as “No abnormal clinical signs”. Moreover, the “water consumption relative to exendin-4 treated mice” value in data set [3] (out to 101 h post dose) is given as “moderately lower”. Moreover, in the data set on male Sprague-Dawley rats [1], the “kaolin intake after dosing relative to 0.9% NaCl” value is given as “kaolin intake was only moderately increased after 6 h”. In addition, the “kaolin intake relative to 0.9% NaCl, first 2 h” value with male Sprague-Dawley rats [1] (first 2 h post dose) was “Minimal kaolin intake”. Besides, the “clinical chemistry, hematology, urinalysis, organ weights, macroscopic evaluations” value was “no effects on clinical chemistry, hematology, urinalysis, or organ weights, or on macroscopic evaluations” in the data set with Sprague Dawley rats (rat 7-day study) and “no effects on clinical chemistry, hematology, urinalysis, or organ weights, or on macroscopic evaluations” in the data set with monkeys (monkey 7-day study). The “mortality or serious signs of toxicity” value in the data set with Sprague Dawley rats (rat 7-day study, 1, 5 or 25 mg/kg/day SC) is on record as “no mortality or serious signs of toxicity were observed”; with monkeys (monkey 7-day study, 0.4, 2 and 10 mg/kg/day SC), “no mortality or serious signs of toxicity were observed”. The food consumption entry is “dose dependent decrease in food consumption was observed at days 1-3” in the data set on Sprague Dawley rats (rat 7-day study, 5 and 25 mg/kg/day SC, similar to vehicle by day 4); “decrease in food consumption was observed at 25 mg/kg from days 1-7” in the data set with Sprague Dawley rats (rat 28-day study, 25 mg/kg, comparable across groups by day 8); “significantly reduced at 10/mg/kg on days 2 and 3” in the data set on monkeys (monkey 28-day study, 10 mg/kg, comparable across groups by day 7). Further, the macroscopic evaluations entry in the data set on Sprague Dawley rats (rat 28-day study) and with monkeys (monkey 28-day study) was “no effects on macroscopic evaluations” throughout. Besides, the body weight result in the data set with Sprague Dawley rats (rat 28-day study, 25 mg/kg, weight gain comparable days 4-28) was “Decreases in body weight were also observed at the 25 mg/kg/doses at days 1-4”; in the data set with monkeys (monkey 7-day study, moderately attenuated by day 7) it was “dose-dependent decrease in body weight by day 3”; in the data set with monkeys (monkey 28-day study), “dose dependent decrease in body weight was observed throughout the 28-day period”. Further, the “activity and fecal output” value with Sprague Dawley rats (rat 28-day study, following injections) is “transient decrease in activity and fecal output”. For the same compound, the tolerability result is reported as “generally well tolerated” in the data set with Sprague Dawley rats (rats, up to 25 mg/kg) and “generally well tolerated” in the data set with monkeys (monkeys, up to 10 mg/kg). The “day from which reduction of cumulative weight gain was statistically significant” value is 11 days in [4] (100 nmol/kg, p≦0.05) and 4 days in data set [4] (200 nmol/kg, p≦0.01). Also, in [4], the “cumulative food intake relative to 0.9% NaCl group” value is “Reduction in cumulative food intake”. Further, the “cumulative weight gain compared to 0.9% NaCl” value in data set [4] was “significantly reduced”. In addition, in data set [4], the “day on which decrease in cumulative food intake reached statistical significance” value worked out at 9 days. Also, the “food consumption (number of biscuits per day)” value with monkeys (monkey 7-day study, days 1-3, all groups including vehicle control, comparable by days 4-7) was “Initial decreases in food consumption”. Also, the clinical signs result in the data set on monkeys (monkey 28-day study) was “transient decrease in activity, hunched posture, and decreased fecal output”. Moreover, the “taste aversion response compared to unconjugated exendin-4” value in the data set with male Sprague-Dawley rats [5] is “significantly lower taste aversion response”.
As for “GLP-1: proglucagon-derived peptide secreted from intestinal L-cells; incretin”, the nausea and vomiting result in the data set on subjects is “lead to nausea and, less often, vomiting in a significant proportion of subjects”.
Regarding exendin-4(1-39) [reference compound], in data set [3], the abnormal clinical signs entry is listed as “No abnormal clinical signs”. In the data set with male Sprague-Dawley rats [6], the “kaolin intake relative to 0.9% NaCl, first 2 h” value is “Minimal kaolin intake”. Besides, in data set [4], the “cumulative food intake relative to 0.9% NaCl group” value was “Reduction in cumulative food intake”, the “cumulative weight gain compared to 0.9% NaCl” value is on record as “not significant” and the “day on which decrease in cumulative food intake reached statistical significance” value came out at 16 days. In addition, the “conditioned taste aversion (saccharin preference ratio compared to vehicle control)” value with male Sprague-Dawley rats [5] was “decreased significantly the preference saccharine ratio”.
